Legend:
Assay in all cases: IP/MS, LZTR1 wild type-FLAG, U87
[1] = target: BUB1 (human, UniProt O43683 1-1085, limits assumed)
Method in brief: (§1)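 Read-out: spectral counts from LC-MS/MS (Orbitrap Fusion) after MaxQuant identification. Variable modifications were Met oxidation, protein N-terminal acetylation and N/Q deamidation.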

[2] = target: T1, ZCCHC6 (human, UniProt Q5VYS8 1-1495, limits assumed)
T1 sequence (looked up): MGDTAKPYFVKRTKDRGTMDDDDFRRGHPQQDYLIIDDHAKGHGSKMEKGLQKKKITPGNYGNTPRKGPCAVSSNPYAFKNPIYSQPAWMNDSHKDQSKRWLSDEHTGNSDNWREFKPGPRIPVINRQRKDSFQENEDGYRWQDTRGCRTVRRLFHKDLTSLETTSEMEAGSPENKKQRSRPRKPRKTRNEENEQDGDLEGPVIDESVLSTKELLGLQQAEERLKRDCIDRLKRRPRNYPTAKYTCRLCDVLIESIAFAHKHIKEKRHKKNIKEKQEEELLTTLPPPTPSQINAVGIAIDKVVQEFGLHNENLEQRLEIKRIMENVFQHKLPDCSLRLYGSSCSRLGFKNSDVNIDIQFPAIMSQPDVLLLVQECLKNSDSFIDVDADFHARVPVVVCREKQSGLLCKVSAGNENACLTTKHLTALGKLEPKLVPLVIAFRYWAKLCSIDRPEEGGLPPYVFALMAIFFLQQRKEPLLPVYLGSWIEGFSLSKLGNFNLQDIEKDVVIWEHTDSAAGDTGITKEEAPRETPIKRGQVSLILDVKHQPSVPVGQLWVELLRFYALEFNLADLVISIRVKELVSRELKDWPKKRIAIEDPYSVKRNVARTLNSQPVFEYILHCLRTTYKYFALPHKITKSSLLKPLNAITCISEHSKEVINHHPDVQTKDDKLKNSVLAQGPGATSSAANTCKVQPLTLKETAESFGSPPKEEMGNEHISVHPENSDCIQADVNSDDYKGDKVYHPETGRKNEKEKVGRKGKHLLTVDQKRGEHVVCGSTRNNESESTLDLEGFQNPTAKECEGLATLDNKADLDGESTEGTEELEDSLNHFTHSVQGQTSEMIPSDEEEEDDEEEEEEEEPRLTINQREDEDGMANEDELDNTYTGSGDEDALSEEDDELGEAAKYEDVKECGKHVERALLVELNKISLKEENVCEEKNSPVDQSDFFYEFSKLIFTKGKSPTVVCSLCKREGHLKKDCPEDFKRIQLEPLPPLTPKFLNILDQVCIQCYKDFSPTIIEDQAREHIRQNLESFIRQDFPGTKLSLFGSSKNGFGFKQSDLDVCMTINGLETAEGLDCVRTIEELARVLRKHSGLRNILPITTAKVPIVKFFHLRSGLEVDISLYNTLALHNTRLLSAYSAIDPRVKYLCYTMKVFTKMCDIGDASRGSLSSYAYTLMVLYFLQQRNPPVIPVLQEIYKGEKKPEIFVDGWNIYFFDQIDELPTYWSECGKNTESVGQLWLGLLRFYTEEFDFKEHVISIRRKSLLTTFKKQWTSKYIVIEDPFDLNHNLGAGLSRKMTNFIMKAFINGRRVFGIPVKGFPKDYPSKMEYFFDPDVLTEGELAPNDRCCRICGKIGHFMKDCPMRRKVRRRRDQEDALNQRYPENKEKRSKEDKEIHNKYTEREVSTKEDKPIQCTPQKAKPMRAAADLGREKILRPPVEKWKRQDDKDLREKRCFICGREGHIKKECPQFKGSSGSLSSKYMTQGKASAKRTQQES
Method in brief: as §1

[3] = target: T2, LONP2 (human, UniProt Q86WA8 2-852, limits assumed)
T2 sequence (looked up): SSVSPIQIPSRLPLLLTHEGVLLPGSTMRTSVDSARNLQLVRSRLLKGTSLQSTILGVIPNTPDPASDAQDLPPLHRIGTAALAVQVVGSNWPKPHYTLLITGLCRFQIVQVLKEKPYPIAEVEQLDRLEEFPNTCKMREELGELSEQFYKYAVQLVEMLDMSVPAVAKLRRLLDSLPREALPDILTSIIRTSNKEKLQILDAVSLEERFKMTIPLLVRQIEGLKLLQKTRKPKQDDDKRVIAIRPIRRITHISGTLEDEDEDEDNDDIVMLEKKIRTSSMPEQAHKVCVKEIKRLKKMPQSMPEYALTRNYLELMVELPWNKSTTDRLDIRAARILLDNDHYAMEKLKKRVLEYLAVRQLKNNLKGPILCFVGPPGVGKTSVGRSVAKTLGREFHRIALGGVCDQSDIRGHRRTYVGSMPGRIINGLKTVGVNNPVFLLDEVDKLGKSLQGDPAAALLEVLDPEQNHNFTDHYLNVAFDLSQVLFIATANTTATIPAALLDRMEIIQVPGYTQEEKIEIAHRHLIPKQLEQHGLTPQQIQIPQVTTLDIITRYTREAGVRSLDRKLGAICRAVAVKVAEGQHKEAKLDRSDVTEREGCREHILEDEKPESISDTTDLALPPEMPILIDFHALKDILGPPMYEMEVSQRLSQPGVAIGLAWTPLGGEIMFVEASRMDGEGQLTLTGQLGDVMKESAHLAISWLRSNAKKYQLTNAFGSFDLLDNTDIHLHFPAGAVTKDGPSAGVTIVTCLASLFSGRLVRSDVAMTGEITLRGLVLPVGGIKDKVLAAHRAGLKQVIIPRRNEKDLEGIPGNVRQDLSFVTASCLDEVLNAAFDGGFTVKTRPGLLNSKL
Method in brief: as §1

Chain of BUB1 (O43683 whole entry, the tested form may be a part): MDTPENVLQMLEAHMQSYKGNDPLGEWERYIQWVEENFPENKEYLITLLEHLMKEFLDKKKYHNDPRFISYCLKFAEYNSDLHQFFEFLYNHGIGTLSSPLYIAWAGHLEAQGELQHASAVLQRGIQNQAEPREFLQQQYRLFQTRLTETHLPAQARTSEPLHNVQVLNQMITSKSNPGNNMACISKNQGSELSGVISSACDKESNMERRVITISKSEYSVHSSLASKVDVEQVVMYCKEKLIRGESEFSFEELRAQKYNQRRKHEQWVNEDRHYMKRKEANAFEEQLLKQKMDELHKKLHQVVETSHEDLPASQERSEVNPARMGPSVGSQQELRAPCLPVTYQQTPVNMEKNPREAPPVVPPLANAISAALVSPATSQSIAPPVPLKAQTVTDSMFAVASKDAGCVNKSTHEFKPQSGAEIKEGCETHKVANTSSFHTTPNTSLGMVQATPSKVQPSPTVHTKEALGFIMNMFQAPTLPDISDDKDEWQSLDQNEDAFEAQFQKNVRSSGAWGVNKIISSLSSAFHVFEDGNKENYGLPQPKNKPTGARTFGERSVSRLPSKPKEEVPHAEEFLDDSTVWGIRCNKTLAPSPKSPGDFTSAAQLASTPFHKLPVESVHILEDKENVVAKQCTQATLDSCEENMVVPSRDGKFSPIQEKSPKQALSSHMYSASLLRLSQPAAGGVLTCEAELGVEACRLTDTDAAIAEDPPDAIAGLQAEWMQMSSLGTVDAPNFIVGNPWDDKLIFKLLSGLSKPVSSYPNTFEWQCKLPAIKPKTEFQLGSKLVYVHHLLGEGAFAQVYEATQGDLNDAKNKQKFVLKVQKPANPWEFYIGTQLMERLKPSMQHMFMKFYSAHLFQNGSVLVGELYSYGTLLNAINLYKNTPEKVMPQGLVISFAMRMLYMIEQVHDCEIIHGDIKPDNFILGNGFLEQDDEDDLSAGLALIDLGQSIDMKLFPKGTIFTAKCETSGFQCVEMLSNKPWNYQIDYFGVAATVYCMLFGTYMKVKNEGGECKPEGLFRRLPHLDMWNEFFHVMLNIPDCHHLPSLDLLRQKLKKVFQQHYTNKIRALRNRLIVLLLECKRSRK

binding result [1]: binds
binding result [2]: binds
binding result [3]: binds
B1: LZTR1-FLAG (other, human, UniProt Q8N653 1-840, looked up)
chain: MAGPGSTGGQIGAAALAGGARSKVAPSVDFDHSCSDSVEYLTLNFGPFETVHRWRRLPPCDEFVGARRSKHTVVAYKDAIYVFGGDNGKTMLNDLLRFDVKDCSWCRAFTTGTPPAPRYHHSAVVYGSSMFVFGGYTGDIYSNSNLKNKNDLFEYKFATGQWTEWKIEGRLPVARSAHGATVYSDKLWIFAGYDGNARLNDMWTIGLQDRELTCWEEVAQSGEIPPSCCNFPVAVCRDKMFVFSGQSGAKITNNLFQFEFKDKTWTRIPTEHLLRGSPPPPQRRYGHTMVAFDRHLYVFGGAADNTLPNELHCYDVDFQTWEVVQPSSDSEVGGAEVPERACASEEVPTLTYEERVGFKKSRDVFGLDFGTTSAKQPTQPASELPSGRLFHAAAVISDAMYIFGGTVDNNIRSGEMYRFQFSCYPKCTLHEDYGRLWESRQFCDVEFVLGEKEECVQGHVAIVTARSRWLRRKITQARERLAQKLEQEAAPVPREAPGVAAGGARPPLLHVAIREAEARPFEVLMQFLYTDKIKYPRKGHVEDVLLIMDVYKLALSFQLCRLEQLCRQYIEASVDLQNVLVVCESAARLQLSQLKEHCLNFVVKESHFNQVIMMKEFERLSSPLIVEIVRRKQQPPPRTPLDQPVDIGTSLIQDMKAYLEGAGAEFCDITLLLDGHPRPAHKAILAARSSYFEAMFRSFMPEDGQVNISIGEMVPSRQAFESMLRYIYYGEVNMPPEDSLYLFAAPYYYGFYNNRLQAYCKQNLEMNVTVQNVLQILEAADKTQALDMKRHCLHIIVHQFTKVSKLPTLRSLSQQLLLDIIDSLASHISDKQCAELGADI
notes: Expressed in HEK 293T, HeLa or U87 cells; used as cell lysate; also called LZTR1 wild type-FLAG; LZTR1 WT; not shown: FLAG tag at the C-terminus

Source: patent US20250262210A1 (TRUSTEES OF COLUMBIA UNIVERSITY IN THE CITY OF NEW YORK, published 2025)
